Two molecules from paper PMC6222646, “HIV-1 Integrase-Targeted Short Peptides Derived from a Viral Protein R Sequence” (Molecules : A Journal of Synthetic Chemistry and Natural …, 2018) can be followed below.

The target of the assay is HIV-1 integrase (IN) (HIV-1).

Where no end group is shown, it is not given here.

In the case of Ac-FIHFRIG-NH2 [peptide 1c (Ac-FIHFRIG-amide)], the 3'-P IC50 (in vitro IN 3'-processing assay) came to 23.5 µM and the ST IC50 (in vitro IN strand transfer assay) stood at 4.7 µM.
The molecule FIHFRIG-NH2 [peptide 1b (FIHFRIG-amide)] showed a 3'-P IC50 (in vitro IN 3'-processing assay) of 31.5 µM and an ST IC50 (in vitro IN strand transfer assay) of 7.3 µM.
